Data set [1] in a line: pH stability of the enzyme (residual activities after treatment in buffers). In kind it is physicochemical. The method, then: (determined on the basis of residual activities after treatments in 0.1M dimethylglutaric acid buffer for pH 4-5, in 0.1M Good buffer (PIPES) for pH 6-7 and in 0.1M Tris-HCl buffer for ph 8-9 at 28° C. for 30 minutes). Residual activity of 70% or more is recognized in pH 5-7 while only those of 30% or less are recognized in pH 4 or below, and in pH 8 or above.
Ninety-six (96) % or more of the activity is lost after being stood at pH 4 or below, or pH 8 or above and at 28° C. for 2 hours.

Data set [2] is described as follows: Optimum pH and range of reaction temperature of the enzyme. In kind it is biochemical. The method, then: In order to clarify the relation between the reaction velocity of the 25DKG-Rase and pH, the enzymatic activities were measured by using the following buffers in place of the buffer of the reaction system in (5)-(ii).
The results of the measurements of the enzymatic activities on the substrates, Ca-25DKG and 5KF at the respective pHs are shown in Table 4 below.
The reaction velocities in the reaction system of (5)-(ii) which employs the substrate, Ca-25DKG were measured at varying temperatures from 15° to 50° C.
Enzymatic activities of 25DKG-Rases obtained from K-106 and T-13 were measured at varying pH from 4 to 9 (substrate: Ca-25DKG, reaction temperature: 30° C.).

Data set [3] can be described thus: Isoelectric point electrophoresis of the enzyme. In kind it is physicochemical. The protocol: (10) Isoelectric point: pH 4.4±0.3 (measured by isoelectric point electrophoresis).
Five (5) μl of the enzyme solution was then subjected to isoelectric point electrophoresis (gel; polyacrylamide: conditions of phoresis(a); pH interval 2.5-5; anode electrolyte=0.1M H2 SO4 cathode electrolyte=0.1M NaOH, 6W, 2,700 VH: conditions of phoresis(b); pH interval 4.0-6.5; anode electrolyte=0.04M DL-glutamic acid, cathode electrolyte=0.2M NaOH, 25W, 2,600 VH; temperature, 18°-20° C.) to give a result that the enzyme migrated in a single band at a position which corresponds to pH 4.4±0.2. From the previously-describedfacts, it was confirmed that the purified enzyme solution was one which solely contains 25DKG-Rase.

Values joined by “and” are separate entries in the source; they are usually repeats but may differ in a detail not shown here. Identical values can stand only once.

Take “2,5-diketo-D-gluconic acid reductase [25DKG-Rase]”: in data set [1] (28° C. for 30 minutes in 0.1M buffers), the pH stability was 5-7 pH. The Residual activity was at most 30% in data set [1] (pH 4 or below, and pH 8 or above, 28° C. for 30 minutes); at least 70% in data set [1] (pH 5-7, 28° C. for 30 minutes). The substance also displayed an activity lost in data set [1] (pH 4 or below, or pH 8 or above, 28° C. for 2 hours) of at least 96%. Also, in data set [2], the “optimum pH” value is 6-7 pH. For the same substance, the isoelectric point in data set [3] is 4.4±0.2 pH and 4.4±0.3 pH.

These data come from patent publication US4748122A, “2,5-diketo-D-gluconic acid reductase” (Shionogi & Co., Ltd., priority 1983, dated 1988).
